Experimental data: paper PMC10901376 (Science Advances, 2024)

Target: the molecule itself
Experiment: cryo-EM structure

B1: S. aureus TarL H300N (enzyme, UniProt Q2G1B8 1-562, looked up)
chain: MVKSKIYIDKIYWERVQLFVEGHSENLDLEDSNFVLRNLTETRTMKANDVKIDGNQFVCRFNVAILDNGYYLPEDKYLLVNEQELDYIAQLNPDVINDAYQNLKPEQEEEYNELETQNGKINFLLQTYLKEFRKGGISKKTVYTVTPEISSDVNEFVLDVVVTTPEVKSIYIVRKYKELRKYFRKQSFNTRQFIFKAIFNTTKFFHLKKGNTVLFTSDSRPTMSGNFEYIYNEMLRQNLDKKYDIHTVFKANITDRRGIIDKFRLPYLLGKADYIFVDDFHPLIYTVRFRRSQEVIQVWNAVGAFKTVGFSRTGKKGGPFIDSLNHRSYTKAYVSSETDIPFYAEAFGIKEKNVVPTGVPRTDVLFDEAYATQIKQEMEDELPIIKGKKVILFAPTFRGSGHGTAHYPFFKIDFERLARYCEKNNAVVLFKMHPFVKNRLNIADKHKQYFVDVSDFREVNDILFITDLLISDYSSLIYEYAVFKKPMIFYAFDLEDYITTRDFYEPYESFVPGKIVQSFDALMDALDNEDYEGEKVIPFLDKHFKYQDGRSSERLVRNLFGS
stoichiometry N: 4
